Measurements published in PMC8660880.

Target: mS105 (Chlamydomonas reinhardtii (endogenous in strain CC-4351))
Assay: cryo-EM structure; single-particle reconstruction of the native small subunit (SSU) of the C. reinhardtii mitoribosome isolated from purified mitochondria; Monosome buffer; 5.49 A, focused refinement 4.19 A (body) and 4.47 A (head)

## mS105 (natural protein)
  stoichiometry N: 3
